Key:
[1] = molecular target: GLUT1 (glucose transporter band 4.5) (Homo sapiens) (UniProt P11166); assay: ELONA; conditions: ELONA: protein coated at 10 nM in carbonate/bicarbonate pH 9.6; aptamer (1.5625 nM-5 uM, 95 C 5 min then snap-cooled) in 1x DPBS, 0.55 mM MgCl2, 0.05% …
Glycophorin A [2] = molecular target: T1, Glycophorin A (Homo sapiens, UniProt P02724 20-91); assay: ELONA; one-site fit, R2 0.948; text says low micromolar; ELONA: protein coated at 10 nM in carbonate/bicarbonate pH 9.6; aptamer (1.5625 nM-5 uM, 95 C 5 min then snap-cooled) in 1x DPBS, 0.55 mM MgCl2, 0.05% Tween-20, 1% BSA, 1 h, room temperature; SA-HRP/TMB read-out at 450 nm; conditions: protein: recombinant; label: 5' biotin; hairpin, 2 loops predicted by Mfold; CD B-DNA-like
Glycophorin A [3] = molecular target: T1, Glycophorin A; assay: ELONA; one-site fit, R2 0.857; ELONA: protein coated at 10 nM in carbonate/bicarbonate pH 9.6; aptamer (1.5625 nM-5 uM, 95 C 5 min then snap-cooled) in 1x DPBS, 0.55 mM MgCl2, 0.05% Tween-20, 1% BSA, 1 h, room temperature; SA-HRP/TMB read-out at 450 nm; conditions: protein: recombinant; label: 5' biotin; hairpin, 3 loops predicted by Mfold; CD indicates parallel G4
Glycophorin A [4] = molecular target: T1, Glycophorin A; assay: ELONA; one-site fit, R2 0.716; text says low micromolar; ELONA: protein coated at 10 nM in carbonate/bicarbonate pH 9.6; aptamer (1.5625 nM-5 uM, 95 C 5 min then snap-cooled) in 1x DPBS, 0.55 mM MgCl2, 0.05% Tween-20, 1% BSA, 1 h, room temperature; SA-HRP/TMB read-out at 450 nm; conditions: protein: recombinant; label: 5' biotin; hairpin, 2 loops predicted by Mfold; CD indicates parallel G4

GLUT1 (glucose transporter band 4.5) (Homo sapiens), sequence (P11166 whole entry): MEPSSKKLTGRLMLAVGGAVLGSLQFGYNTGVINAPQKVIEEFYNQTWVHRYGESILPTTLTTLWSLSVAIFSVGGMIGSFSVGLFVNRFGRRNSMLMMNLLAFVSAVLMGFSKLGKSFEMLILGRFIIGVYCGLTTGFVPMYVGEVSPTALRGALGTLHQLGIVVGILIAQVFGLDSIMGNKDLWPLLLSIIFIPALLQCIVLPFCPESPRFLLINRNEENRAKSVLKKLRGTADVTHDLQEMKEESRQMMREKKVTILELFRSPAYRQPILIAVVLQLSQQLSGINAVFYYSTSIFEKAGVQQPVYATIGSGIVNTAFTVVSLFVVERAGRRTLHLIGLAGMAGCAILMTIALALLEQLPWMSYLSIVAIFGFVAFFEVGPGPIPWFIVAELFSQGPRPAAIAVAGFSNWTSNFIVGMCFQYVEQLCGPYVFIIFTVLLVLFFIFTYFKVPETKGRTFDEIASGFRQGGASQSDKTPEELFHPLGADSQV

## ATCCAGAGTGACGCAGCACGGGTTGGGGCTGGTTGTGTGTTGTTTTTTTGGCTGTATGTGGACACGGTGGCTTAGT [N1 aptamer (76 nt)]
[1]
  Kd: 59.5 nM

## ATCCAGAGTGACGCAGCATGCGGGGAGAGGAGTGTGGGATGGGTTTGTTTGTTTAGGGTGGACACGGTGGCTTAGT [N4 aptamer (76 nt)]
[1]
  Kd: 37.6 nM

## CTCCTCTGACTGTAACCACGTCGCGGGTAGGGGGAGGGCCGAGGAGGCTGTAGGTGGGTGGCATAGGTAGTCCAGAAGCC [BB1 aptamer (80 nt)]
[1]
  Kd: 41.6 nM

B1: N1 aptamer (76 nt) (ssDNA)
DNA: ATCCAGAGTGACGCAGCACGGGTTGGGGCTGGTTGTGTGTTGTTTTTTTGGCTGTATGTGGACACGGTGGCTTAGT
Glycophorin A [2]
  Kd: 356 ± 95.6 nM

B2: BB1 aptamer (80 nt) (structured_DNA)
DNA: CTCCTCTGACTGTAACCACGTCGCGGGTAGGGGGAGGGCCGAGGAGGCTGTAGGTGGGTGGCATAGGTAGTCCAGAAGCC
Glycophorin A [3]
  Kd: 25 ± 10.3 nM

B3: N4 aptamer (76 nt) (structured_DNA)
DNA: ATCCAGAGTGACGCAGCATGCGGGGAGAGGAGTGTGGGATGGGTTTGTTTGTTTAGGGTGGACACGGTGGCTTAGT
Glycophorin A [4]
  Kd: 354 ± 227 nM

Source: article PMC12211734, “In silico and in vitro characterisation and affinity maturation of human red blood cell binding aptamers†”
